Experimental data reported in patent US20140094417A1.

Target: CD22 (UniProt P20273)
Test: cell-based or functional assay

Sequence of UniProt P20273 (P20273 20-847 limits assumed): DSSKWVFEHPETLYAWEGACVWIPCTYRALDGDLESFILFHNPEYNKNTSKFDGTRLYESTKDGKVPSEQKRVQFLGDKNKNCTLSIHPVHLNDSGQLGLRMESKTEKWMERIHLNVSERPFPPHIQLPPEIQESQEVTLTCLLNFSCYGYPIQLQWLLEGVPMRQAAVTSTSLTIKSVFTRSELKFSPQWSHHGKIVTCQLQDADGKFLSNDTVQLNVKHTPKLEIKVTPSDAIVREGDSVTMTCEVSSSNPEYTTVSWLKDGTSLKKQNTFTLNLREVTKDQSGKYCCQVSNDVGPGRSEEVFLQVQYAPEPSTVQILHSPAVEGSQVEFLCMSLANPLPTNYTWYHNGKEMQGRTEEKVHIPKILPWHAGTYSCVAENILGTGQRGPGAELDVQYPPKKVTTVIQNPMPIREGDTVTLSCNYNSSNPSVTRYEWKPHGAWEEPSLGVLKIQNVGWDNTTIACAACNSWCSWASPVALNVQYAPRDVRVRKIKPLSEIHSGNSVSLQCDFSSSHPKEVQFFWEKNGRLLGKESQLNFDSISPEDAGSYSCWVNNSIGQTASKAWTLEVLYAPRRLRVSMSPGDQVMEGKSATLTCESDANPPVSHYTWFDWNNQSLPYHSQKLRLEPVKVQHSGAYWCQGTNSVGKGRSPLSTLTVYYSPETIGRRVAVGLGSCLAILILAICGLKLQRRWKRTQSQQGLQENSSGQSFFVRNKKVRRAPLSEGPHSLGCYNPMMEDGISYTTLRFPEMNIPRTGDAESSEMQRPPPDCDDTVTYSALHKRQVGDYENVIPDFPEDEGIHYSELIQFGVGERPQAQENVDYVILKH

| Substance | IC50 (ng/ml), cytotoxic activity on CA46 [ng/mL] | IC50 (ng/ml), cytotoxic activity on Daudi [ng/mL] | IC50 (ng/ml), cytotoxic activity on Raji [ng/mL] | activity on CA46 relative to HA22-LR [%] | activity on Daudi relative to HA22-LR [%] | activity on Raji relative to HA22-LR [%] |
| --- | --- | --- | --- | --- | --- | --- |
| HA22-LO10 | 0.38 | 0.3 | 1.5 | 29 | 60 | 27 |
| HA22-LR | 0.11 | 0.18 | 0.41 | – | – | – |
